According to paper PMC7374468, “Characterization of highly active 2-keto-3-deoxy-L-arabinonate and 2-keto-3-deoxy-D-xylonate dehydratases in terms of the biotransformation of hemicellulose sugars to chemicals” (Applied Microbiology and Biotechnology, 2020):

B1: CcD-KdpD1 (Caulobacter vibrioides CB15) (protein)
chain: MVCRRLLAWTARAREAEDFALVRQPTCRPHMLALPSADERAPPTVSALQTLEFWGDDAVGVSEFLPEDWKAATLLGRIDFGEGPTPVLVRGGRVEDVSKIAPTVADLMNAFQPGAVIPRGEDKGPLEALDIRPVWEDPDGAAPVKLLAPVDLQCLKAAGVTFAVSTLERVIEERARGDAGEALKIRTLLAERMGGDLKSVEPGSQGAQRLKDALIADGLWSQYLEVAIGPDAEIFTKGPTLSSMGWGDQVGVRYDSHWNNPEPEVVLLCDGSGLIRGAALGNDVNLRDFEGRSALLLSKAKDNNASCAIGPFFRLFDETFGLDDVRSAEVELKITGRDNFVLDGKSNMSLISRDPAVLAGQAYGKQHQYPDGFALFLGTMFAPIQDRDTPGQGFTHKVGDRVRVSTPKLGVLENEVTTCDKAKPWTFGISALIRNLAGRGLL
notes: C-terminal His6 tag (kept), codon-optimised synthetic gene, E. coli BL21(DE3); 58-residue N-terminal extension
B2: PpD-KdpD (Pseudomonas putida KT2440) (protein)
chain: MTDRTNANQPLPLSHDASVFDRGSWVGRVWLPEQGPAVVLVKAGAVYDISTHVATVSALLEVDDPVAYLRALPLAEPLIALPALLGNSDPTRRTPHQPWLLAPIDLQAVKAAGVTFATSLLERVVEEQAKGDPAKADAIRDTLASRIGADLSQIVPGSAQAEALRKVLVEQGLWSQYLEVGIGPDAEVFTKAQPLSAVGHGADIGIHPKSSWNNPEPEVVLAVSSNGSIKGAMLGNDVNLRDFEGRSALLLSKAKDNNASTALGPLLRLFDESFGLDDVRAAEVDLRVEGEDGFILSGRSSMRQISRDPQDLVQQTLNENHQYPDGLVLFLGTLFAPKQDRDQPGNGFTHKPGDVVSISNPQLGTLCNRVTTSDLAPQWDFGLRALIDNLGRRGLLEVAATARPL
notes: C-terminal His6 tag (kept), pET vector, E. coli BL21(DE3), HisTrap purified
B3: HsD-KdpD (Herbaspirillum seropedicae SmR1) (protein)
chain: MAHTFSLQAHLPEDHAQATLIGRIWQPGVGPVLVRIDADGAYDLTLIAATSSELLELDNPAAAVRSATNMTRIATLQELLDNADAAGRDTSRPWLLAPIDLQAVKASGVTFVASMLERVIEEQARGDAGKAESVRKAITAVIGDNLSSVVPGSPEAARLKEVLLDQGVWSQYLEVGIGPDAEIFTKAQPMSSVGLGDEVGIHPKSAWNNPEPEIVLAINSRGKVVGATLGNDVNLRDFEGRSALLLGKAKDNNASCAVGPFIRLFDANFSIDDVRRAELTMRVDGTEGFTLKGSSSMSMISRDPLQLVEHAIGPNHQYPDGLVLFLGTMFAPTQDRFGPGQGFTHQVADIVTISTPKLGALVNTVNFSDQTAPWTFGLTALFKNLADRKLI
notes: as for B2
B4: PxD-KdpD (Paraburkholderia xenovorans LB400) (protein)
chain: MSATSPSSFLPDDLGQALLVGRVWRKTDQHEGPSVVVVRGGEVFDITATVPTTADLFDREDAAPLARTAPGVSLGAVAQLIASNLPGAAAPALRLLAPCDVQAIKACGVTFAVSLIERVIEEQAAGDPAKAKEVRDTIASMIGTDLSKIEPGSDAAMKLKAELERRGAWSQYMEVGIGPDAEVFSKSQPMSAVGFGADVGLLAASTWNNPEPEIVLAVNSRGEIVGATLGNDVNLRDIEGRSALLLGKCKDNNGSCAIGPFVRLFDESFSLDSVRTASVALRVEGADDGFVLEGVSHMSEISRDPANLVAQTWGRHHQYPDGFMLFLGTMFSPIKDRDAPGAGFTHHLGDLVTISTPQLGALTNTVRLSTEIEPWTFGVRALYRNLAARGLLASA
notes: C-terminal His6 tag (kept), codon-optimised synthetic gene, E. coli BL21(DE3), HisTrap purified
B5: AbL-KdpD (Azospirillum brasilense) (protein)
chain: MTSSSTPRHRGIFPVVPTTFADTGELDLASQKRAVDFMIDAGSDGLCILANFSEQFAITDDERDVLTRTILEHVAGRVPVIVTTSHYSTQVCAARSLRAQQLGAAMVMAMPPYHGATFRVPEAQIFEFYARVSDAIAIPIMVQDAPASGTALSAPFLARMAREIEQVAYFKIETPGAANKLRELIRLGGDAIEGPWDGEEAITLLADLHAGATGAMTGGGFPDGIRPILEAWREGRHDDAYARYQAWLPLINHENRQSGILTAKALMREGGVIASERPRHPMPELHPDTRAELLAIARRLDPLVLRWAH
notes: N-terminal His6 tag (kept), codon-optimised synthetic gene, E. coli BL21(DE3), HisTrap purified, lower purity
B6: HsL-KdpD (Herbaspirillum seropedicae SmR1) (protein)
chain: MSTPLYRGVFPVAPTIFDANGKLDLEGQKRAIDFMIDAGSNGLCILANFSEQFVLSDEERVQVQNTVLEHVAGRVPVIVTTTHYGSQICAERSRAAQDAGAAMVMVMPPYHGATFRVPEKQIYEFYKHVSDAIDIPIMIQDAPVAGTPLSAPFLARMAKEIEQVSYFKIETAGAASKLRDLIELGGDAVVGPWDGEEAITLIPDLDAGATGAMTGGGYPDGIRKIVDAYFAGDIEKAAELYMQWLPLINYENRQCGLSACKALMLEGGVIKSDMLRHPQPPLHPKVREGLLRVARRLDPLVLSWGR
notes: N-terminal His6 tag (kept), pET vector, E. coli BL21(DE3), HisTrap purified
B7: CcD-KdpD2 (Caulobacter vibrioides NA1000) (protein)
chain: MGVSEFLPEDWKAATLLGRIDFGEGPTPVLVRGGRVEDVSKIAPTVADLMNAFQPGAVIPRGEDKGPLEALDIRPVWEDPDGAAPVKLLAPVDLQCLKAAGVTFAVSTLERVIEERARGDAGEALKIRTLLAERMGGDLKSVEPGSQGAQRLKDALIADGLWSQYLEVAIGPDAEIFTKGPTLSSMGWGDQVGVRYDSHWNNPEPEVVLLCDGSGLIRGAALGNDVNLRDFEGRSALLLSKAKDNNASCAIGPFFRLFDETFGLDDVRSAEVELKITGRDNFVLDGKSNMSLISRDPAVLAGQAYGKQHQYPDGFALFLGTMFAPIQDRDTPGQGFTHKVGDRVRVSTPKLGVLENEVTTCDKAKPWTFGISALIRNLAGRGLL
notes: as for B2
B8: CnD-KdpD (Cupriavidus necator H16) (protein)
chain: MALPLTLSATQTLPADGLAGTLVGRAWIPASDGAPAGPAVVVLRPAGVFDISDVAPTMSTLLEQGDPVTVVHNTPGRWIGKLDDLLANTADPRGSDSVARLLAPCDLQVIKAAGVTFAGSLVERVIEEQTKGDPQGAAEVRNRIQALVGERLSRIRPGSREAGELKALLIEHGMWSQYLEVGIGPDAEIFTKAPLLSALGTGTEIGLHPGSAWNNPEPEIVLAINSRGDVLGATLGNDVNLRDFEGRSALLLGKAKDNNGSCAIGPFLRLFDQSLSLDDVRRATVDLRVDGLDGFVLSGTSSMDQITRDPLELAEQVMGATHQYPDGAMLFLGTLFAPVEDRDTAGGGFTHKDGDLVTISSRQLGSLVNRVGRSDRIAPWTFGVRALMANLAARGHTTF
notes: C-terminal His6 tag (kept), pET vector, E. coli BL21(DE3), HisTrap purified; strain given inconsistently (H16 gDNA vs N-1)
B9: CnL-KdpD (Nhis) (Cupriavidus necator H16) (protein)
chain: MTRTPSPTVYRGVFPVAPTVFDAQGGLDLDGQRRCIDFMIDAGSHGICILANFSEQFVLSDDERNVLMKTVLEHVDGRVPVIVTTTHFSSRLCAERSRAAQDAGAAMVMVMPPYHGATIRVPERSIYEFFATVSDAIDIPIMIQDAPVSGTTLSAPFLARMAREIGNVSYFKIEVPQAAAKLRELIELGGDAIVGPWDGEEAITLMADLEAGATGAMTGAGFPDGIRQILDAWQAGDAELAAQRYQQWLPLINYENRQGWLATSKVLMQAGGVIASDAVRHPLQPMHPATREGLLKIARRLDPLVLRWAR
notes: N-terminal His6 tag (kept), pET vector, E. coli BL21(DE3), HisTrap purified; strain given inconsistently (H16 gDNA vs N-1)
B10: CnL-KdpD (Chis) (Cupriavidus necator H16) (protein)
chain: B9 chain
notes: as for B8

Tests used:
[1] = substrate: O=C(O)C(=O)C[C@@H](O)CO; test: purified protein, by the assay type; parameters: coupled assay with PpKGSADH, NADH formation at 340 nm, Michaelis-Menten fit, 25 °C, pH 7.5; details: pH 7.5; 25.0 °C
Description: (§1) To determine dehydratase activity, a coupled-assay with PpKGSADH as auxiliary enzyme was used to link the oxidation of KGSA to α-KG using NAD^+, as was described in a previous study (Beer et al. [2017]). The measurement was performed in a 96-well F-bottom plate (Greiner Bio-One, Germany). 20 μL of a diluted enzyme was added to a 96-well plate. A total of 180 μL of reaction solution containing different concentrations of either D-KDP or L-KDP with 0.5 U/mL PpKGSADH, 2 mM NAD^+, 5 mM MgCl2, 50 mM HEPES pH 7.5 (end concentration) were added subsequently. The measurement was performed with a Multiskan spectrophotometer (Thermo Scientific, Germany) by measuring the development of NADH at 340 nm at 25 °C. Enzyme activity (kcat) was defined as the number of NADH molecules formed per molecule of enzyme per second. Measurements were performed in triplicate.

[2] = substrate: O=C(O)C(=O)C[C@H](O)CO; test: purified protein; type: biochemical, Caulobacter vibrioides; details: 2 mM NAD+ for coupling enzyme, 5 mM MgCl2, 50 mM HEPES pH 7.5, 25 °C
[3] = substrate: O=C(O)C(=O)C[C@H](O)CO; test: purified protein; type: biochemical, Pseudomonas putida; details: 2 mM NAD+ for coupling enzyme, 5 mM MgCl2, 50 mM HEPES pH 7.5, 25 °C
[4] = substrate: O=C(O)C(=O)C[C@H](O)CO; test: purified protein; type: biochemical, Herbaspirillum seropedicae; details: 2 mM NAD+ for coupling enzyme, 5 mM MgCl2, 50 mM HEPES pH 7.5, 25 °C
[5] = substrate: O=C(O)C(=O)C[C@H](O)CO; test: purified protein; type: biochemical, Paraburkholderia xenovorans; details: 2 mM NAD+ for coupling enzyme, 5 mM MgCl2, 50 mM HEPES pH 7.5, 25 °C
[6] = substrate: O=C(O)C(=O)C[C@H](O)CO; test: purified protein, by the assay type; parameters: coupled assay with PpKGSADH, NADH formation at 340 nm, Michaelis-Menten fit, 25 °C, pH 7.5; details: pH 7.5; 25.0 °C
Description: as §1

[7] = substrate: O=C(O)C(=O)C[C@@H](O)CO; test: purified protein; type: biochemical, Azospirillum brasilense; details: 2 mM NAD+ for coupling enzyme, 5 mM MgCl2, 50 mM HEPES pH 7.5, 25 °C
[8] = substrate: O=C(O)C(=O)C[C@@H](O)CO; test: purified protein; type: biochemical, Herbaspirillum seropedicae; details: 2 mM NAD+ for coupling enzyme, 5 mM MgCl2, 50 mM HEPES pH 7.5, 25 °C
[9] = substrate: O=C(O)C(=O)C[C@H](O)CO; test: purified protein; type: biochemical, Cupriavidus necator; details: 2 mM NAD+ for coupling enzyme, 5 mM MgCl2, 50 mM HEPES pH 7.5, 25 °C
[10] = substrate: O=C(O)C(=O)C[C@@H](O)CO; test: purified protein; type: biochemical, Cupriavidus necator; details: 2 mM NAD+ for coupling enzyme, 5 mM MgCl2, 50 mM HEPES pH 7.5, 25 °C

Protein | Km [1] [µM] | kcat [1] [s⁻¹] | kcat/Km [1] [M⁻¹ s⁻¹] | Km [6] [µM] | kcat [6] [s⁻¹] | kcat/Km [6] [M⁻¹ s⁻¹] | further results
B1 | 2810 ± 120 | 7.99 ± 0.08 | 2840 ± 210 |  |  |  | Km [2]: 250 ± 10 µM; kcat [2]: 45.6 ± 0.3 s⁻¹; kcat/Km [2]: 185700 ± 200 M⁻¹ s⁻¹
B2 | 6120 ± 210 | 19.64 ± 0.17 | 3210 ± 190 |  |  |  | Km [3]: 350 ± 10 µM; kcat [3]: 75.9 ± 0.6 s⁻¹; kcat/Km [3]: 219900 ± 200 M⁻¹ s⁻¹
B3 | 3180 ± 180 | 16.9 ± 0.21 | 5320 ± 230 |  |  |  | Km [4]: 170 ± 10 µM; kcat [4]: 58.2 ± 0.4 s⁻¹; kcat/Km [4]: 347900 ± 200 M⁻¹ s⁻¹
B4 | 5080 ± 170 | 18.73 ± 0.15 | 3690 ± 180 |  |  |  | Km [5]: 280 ± 10 µM; kcat [5]: 63.6 ± 0.4 s⁻¹; kcat/Km [5]: 229800 ± 200 M⁻¹ s⁻¹
B5 |  |  |  | 6810 ± 350 | 6.65 ± 0.1 | 980 ± 230 | Km [7]: 190 ± 20 µM; kcat [7]: 13.6 ± 0.3 s⁻¹; kcat/Km [7]: 71300 ± 300 M⁻¹ s⁻¹
B6 |  |  |  | 4410 ± 90 | 11.38 ± 0.06 | 2580 ± 140 | Km [8]: 180 ± 0 µM; kcat [8]: 29.6 ± 0.2 s⁻¹; kcat/Km [8]: 163900 ± 200 M⁻¹ s⁻¹
B7 | 3960 ± 130 | 9.67 ± 0.08 | 2440 ± 180 |  |  |  | Km [2]: 290 ± 10 µM; kcat [2]: 55.8 ± 0.4 s⁻¹; kcat/Km [2]: 190600 ± 200 M⁻¹ s⁻¹
B8 | 2490 ± 200 | 4.24 ± 0.07 | 1700 ± 280 |  |  |  | Km [9]: 230 ± 20 µM; kcat [9]: 13.8 ± 0.2 s⁻¹; kcat/Km [9]: 58900 ± 400 M⁻¹ s⁻¹
B9 |  |  |  | 4080 ± 210 | 12 ± 0.16 | 2950 ± 230 | Km [10]: 170 ± 0 µM; kcat [10]: 23.4 ± 0.1 s⁻¹; kcat/Km [10]: 137200 ± 200 M⁻¹ s⁻¹
B10 |  |  |  | 6400 ± 170 | 11.01 ± 0.08 | 1720 ± 160 | Km [10]: 160 ± 10 µM; kcat [10]: 22.5 ± 0.2 s⁻¹; kcat/Km [10]: 137500 ± 200 M⁻¹ s⁻¹
